In PMC5187861:

What was measured:
Assay in all cases: yeast two-hybrid, quantitative β-galactosidase assay
[1] = target: HK1b receiver domain (HK1b-RD), LexA-based two-hybrid bait; conditions: HK1b-RD as bait, HPt as prey, standard error bars, read off a plot
[2] = target: HK1a cytoplasmic part (HK1a-CP), LexA-based two-hybrid bait; conditions: HK1a-CP as bait, HPt as prey, mean of at least four independent assays in triplicate, standard error bars, read off a plot
[3] = target: HK1b cytoplasmic part (HK1b-CP), LexA-based two-hybrid fusion; conditions: HK1b-CP as bait, HPt as prey, standard error bars, read off a plot
[4] = target: HK1a receiver domain (HK1a-RD), LexA-based two-hybrid bait; conditions: HK1a-RD as bait, HPt as prey, mean of at least four independent assays in triplicate, standard error bars, read off a plot

| response (β-Galactosidase units) ([1]; parent: est. 240) | response (β-Galactosidase units) ([2]; parent: est. 71) | response (β-Galactosidase units) ([3]; parent: est. 11) | response (β-Galactosidase units) ([4]; parent: est. 120) | response (β-Galactosidase units) ([1]; parent: est. 11) | response (β-Galactosidase units) ([2]; parent: est. 4.2) | response (β-Galactosidase units) ([3]; parent: est. 2.3) | response (β-Galactosidase units) ([4]; parent: est. 19) | Substance |
| --- | --- | --- | --- | --- | --- | --- | --- | --- |
| 210 | 32 | 7 | 95 |  |  |  |  | HPt2, histidine-containing phosphotransfer protein 2 (two-hybrid prey) L32K; K73R; A76S |
|  |  |  |  | 16 | 5.5 | 3.7 | 33 | HPt1, histidine-containing phosphotransfer protein 1 (two-hybrid prey) K33L; R74K; S77A |
